Source: the RNAGym collection of RNA variant scans (doi:10.7554/elife.90254)

B1: LINE1-full (parent)
chain: UACGUAGGUGGUUUUCCCCUGAUAGUGCUAAGGGGGCCUGGAAGUUUGGACUGGGCAGAGCUCAACACAGCGUGGCAAAGUGGCUGUGGCUAGACUGCCUCUCUGGAUUCCUCGUCACUCAGCAGGGCAUCUCUGAGAGAAAUGCC

Variants of: B1
Experiment: self-cleavage, relative activity (ratio to wild type); higher = more cleavage; in vitro, sequencing; the parent is a self-cleaving ribozyme

Row | Variant | self-cleavage
1 | A22G A92G | 0.2
2 | U52G A59G | 0.34
3 | G53A A136G | 1.71
4 | A64U U109C | 0.25
5 | U29A A77U | 1.79
6 | U81A G83U | 1.3
7 | A79G G88A | 0.03
8 | G88A A141G | 0.08
9 | A24G U73A | 1.2
10 | C51A A138G | 1.44
11 | U45G U62C | 0.02
12 | C61U A124U | 0.03
13 | A121G U143G | 0.5
14 | A57G U81A | 1.16
15 | G36C U132C | 1.27
16 | A64U G125A | 0.34
17 | G36U U62C | 0.02
18 | G54A A77G | 1.02
19 | U1C A43U | 0.75
20 | U23C U73C | 1.81
21 | C145U C146A | 1.59

Row | Variant | self-cleavage
22 | G10A U47C | 1.37
23 | G49U A92G | 0.04
24 | U45A A59C | 1.01
25 | A92U A138U | 0.53
26 | U45C A107U | 1.34
27 | G60A C111G | 0.02
28 | U12C U13C | 1.2
29 | U5C A136G | 1.62
30 | U87G U143A | 0.22
31 | G11A G60A | 0.01
32 | U26C G34A | 1.03
33 | U115C U130G | 0.66
34 | U46G G72A | 1.07
35 | U39A A121G | 1.69
36 | U1C G48A | 0.9
37 | C51U U104C | 1.62
38 | U108C A121G | 1.68
39 | G4U | 1.25
40 | U47G A77U | 0.94
41 | U47G A77G | 1.09
42 | G36A C38A | 1.18

Row | Variant | self-cleavage
43 | U15C G32A | 0.93
44 | U85C G86U | 0.07
45 | U47C A136U | 1.24
46 | U46C U87C | 0.43
47 | U12C U62A | 0.13
48 | A30G U45A | 1.53
49 | G44C U91C | 0.14
50 | A64G A138G | 0.21
51 | A69C U143A | 0.07
52 | A6U U132C | 1.33
53 | U15A U91C | 0.44
54 | U87G A136U | 0.18
55 | G89A A141G | 0.02
56 | U62A U73A | 0.04
57 | A121U C131U | 0.58
58 | U100C G122U | 1.76
59 | C66U U85C | 0.02
60 | A2G C17A | 1.56
61 | U23A C98G | 0.14
62 | G4A C116A | 1.22
63 | U26A U73G | 1.18

Row | Variant | self-cleavage
64 | A24G G122C | 1.12
65 | U102A U109A | 1.03
66 | U12G A142C | 0.93
67 | A59G U104G | 0.08
68 | G135C | 1.55
69 | G135U | 1.22
70 | A57U U100C | 0.19
71 | U29A U47A | 1.6
72 | U13C G53U | 1.11
73 | U13C A64C | 0.45
74 | A142G U143C | 1.31
75 | U15C U73G | 1.18
76 | A2G U104A | 0.95
77 | C131A U134C | 1.53
78 | C123U U130A | 1.72
79 | U52C A121C | 1.92
80 | U96C G135A | 0.24
81 | C99A U119C | 0.82
82 | A79G A129G | 1.62
83 | U14A G114A | 0.83
84 | U9A U47C | 1.37
